B1: TRIM14 (parent)
chain: YARTPTLDPDTMHARLRLSADRLT

Variants of: B1
Test: protein stability index of a GFP-peptide fusion (GPS, HEK-293T) (PSI 1-6); higher = more stable
Details: c terminus: a fixed tail appended
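Also: lentivirally expressed fusions sorted by FACS into six bins by GFP to DsRed ratio, PSI derived from sequencing read proportions per bin multiplied by bin number.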

Protein stability index: each site, then its substitutions
A20: G 2.37, F 1.61, E 3.03, H 2.56
A2: Y 2.9, N 3.09, S 2.44, V 1.89, M 2.69, P 3.9, T 2.46, W 2.5, R 2.85, Q 2.71, K 2.98, L 2.77
P9: Q 2.56, D 2.98, I 2.3, S 2.04, G 3.11, T 2.58, E 2.56, A 2.82, V 2.41, C 2.1, L 2.1, M 3.07, W 2.17, F 2.21, H 2.92, N 3.11, R 2.96, K 3.15, Y 2.22
D10: H 2.29, P 2.31, F 1.64, E 2.66, A 1.98, I 2, L 2.05, M 2.4, G 2.48, C 2.22, Q 2.56, Y 2.34, K 3.05, N 3.23, V 2.78, S 3.77, T 2.66, W 3.31
R17: W 1.42, N 3.2, C 2.25, S 3.01, T 2.91, H 2.73, A 2.89, Y 2.27, K 2.58, Q 2.56, V 2.31, M 2.42, P 2.84, E 3.04, D 3.18, L 2.29, I 2.81, F 2.02, G 3.01
T6: E 2.94, Y 1.94, P 2.3, N 1.96, R 1.94, I 2.1, L 2.56, H 2.44, V 2.22, M 2.71, C 2.34, K 2.33, A 2.64, S 2.28, F 2.24, W 2.79, Q 2.33, D 3.4, G 2.37
L18: F 2.04, G 2.06, K 2.51, N 3.3, I 2.78, M 2.65, W 2.18, Y 2.93, D 3.38, E 3.06, Q 2.65, P 3.34, V 2.62, C 2.62, R 2.81, H 2.82, T 2.42, S 2.87, A 3.6
D8: A 2.15, C 2.1, W 2.08, M 2.22, L 2.41, H 1.87, N 2.58, E 2.26, R 1.98, G 2.18, Y 1.8, V 2.78, I 2.24, Q 2.52, K 2.95, F 2.5, T 2.45, S 2.5, P 2.41
T11: Y 2.9, A 2.68, P 2.79, H 2.12, C 2.94, Q 2.81, I 2.26, K 3.29, D 3.07, N 2.45, F 2.04, W 2.15, R 3.65, V 2.36, L 2.27, G 2.39, S 2.66, M 2.12, E 3.46
T4: E 4.06, C 1.95, I 3.04, Y 2.32, F 2.21, W 1.17, K 2.61, Q 2.84, P 2.95, V 2.78, R 3.13, H 2.67, N 3.1, D 2.6, M 2.45, L 2.16, A 2.37, G 2.21, S 2.47
